For this series, the system named is GSC7 cells. The series can be described thus: Nano-Glo Dual-Luciferase Reporter (Nanoglo DLR) assay of enhancer activity, fold change to mCMV. The series is classed as cell-based, human. The settings on record: expression fold change of the individual enhancer compared to mCMV. The text has this: We chose an arrayed library format, with 160 bp enhancer fragments individually cloned into separate plasmids and arrayed in 96 well plates. These 160 bp were synthesized as a single pool of oligos, then randomly cloned into the plasmid and isolated. 20 bp×2 were needed for PCR amplification of the pool and so a library of 200 bp fragments was synthesized (Twist Biosciences). To meet our oligo synthesis strategy, ChIP-seq peaks expressed by GSCs were merged into a single oligo. This oligonucleotide pool was PCR-amplified (using limited cycles to reduce bias and ‘jackpot’ products meaning products which are easier to amplify will overtake the oligonucleotide pool) and cloned into the expression vector by an efficient Golden Gate reaction. 4579 individual plasmids were then randomly picked, isolated and plated as an arrayed plasmid DNA library on 96 well plates (×48). The bacterial colony picking and production of plasmid minipreps were supported by the Edinburgh Genome Foundry (S. Rosser). This library was then screened using the optimised Nanoglo DLR assay (Nano-Glo Dual-Luciferase Reporter Assay, Promega) in 384 well format. Each plate was transiently transfected together with PGK-FFLuc in a 1:10 ratio into GSC7 cells. 2 days later a Nanoglo DLR assay was performed and assayed on a plate reader.
Cells were seeded in 384 well plates using a multidrop and transfected the following day using the CyBio Felix. Two days later the experiment was terminated with a Nanoglo DLR assay and all hits with a fold change to mCMV greater than 10 were Sanger sequenced and mapped back to the genome.
Cells were seeded at the required density. The following day the transfection was carried out. For this the Plus reagent and Lipofectamine LTX (Life Technologies, 15338030) were each diluted in half the volume of Opti-MEM I Reduced-Serum Medium (further referred to as Optimem) (Life Technologies, 31985062). Following this step, the Plus reagent/Optimem premix was added to all DNA samples followed by the Lipofectamine LTX/Optimem premix. The transfection mix was incubated for 5 min at room temperature and then carefully dropped on the cells. Generally, no media change was carried out. Cells were analysed two days following transfection.
This assay consists of two steps. The transfection was carried out using a normalisation plasmid PGK-Firefly-Luciferase (Promega, E5011) that was transfected in a 1/10 ratio with the plasmid of interest. First, the Firefly Luciferase activity is measured which allows to normalise to transfection efficiency. In a second step, the activity of Nanoluc is determined which is the readout of the plasmid of interest. Cells were washed 3× with PBS and 20 μl was left in the 96 well plate after the final wash (25 μl in 384 well). Oneglo buffer was added and the plate was shaken for 5 min at 480 rpm to allow cell lysis. 20 μl cell lysate in 96 well format or 25 μl cell lysate in 384 well format was then transferred into the corresponding opaque white plate and luminescence was measured at for 0.1 s per well using the Ensight Multimode Plate Reader. For the following Nanoluc reaction in a 96 well format 2 μl cell lysate was transferred into an opaque white plate containing 40 μl PBS, and 20 μl Stopglo buffer, supplemented with substrate, was added to each well. In a 384 well format 20 μl Stopglo buffer containing substrate were added on top of the undiluted cell lysate. The plate was shaken again for 5 min at 480 rpm to quench the firefly luciferase reaction and ensure good mixing. Nanoluc activity was measured for 0.1 s per well, again using Ensight Multimode Plate Reader.
Data obtained by the Nanoluc reaction was normalised to Firefly reaction to account for well-to-well variability of transfection efficiency. Normalised data were used to calculate the fold change to the empty vector control mCMV.

B1: ID2082: enhancer fragment, SEQ ID NO: 28 (nucleic acid)
DNA: ACAGAAGCCGTTGCTGCAGTAACCACTGCCGCAAGAGCAACTTTGGCAGCAGGCAGGTGCCAGGCAGCAAGCTGAGAGAACACTGACAGATTCAAAGTGTCTTCAGATACAAGGCTTTGTTTGTGCACAGTGAACAAAGGGCATATTGGGAAGGCCTCC
Regarding B1, the “Fold change (Median)” value is on record as 26.4 fold.

B2: ID1667: enhancer fragment, SEQ ID NO: 30 (nucleic acid)
DNA: ACCCTTTGCAGAGAGGAAAGAGAAAGGAGGTCTCCTGTTGGGGAGATCTGCTTTAGAGGTTAGGAAGAATGGTGGAGTTGTAAGACATTGGAATCACTGTCTAGGAAGGACAGTGGCCTTTTATCCAGGGCTATTTAAAAACAGACAGAGCTTCATCTAT
As to B2, the “Fold change (Median)” value was 25.2 fold.

B3: CSE194: clustered SOX dimer motif enhancer, SEQ ID NO: 37 (nucleic acid)
DNA: ATCTCATATATGTGTATATGTATTTATGATTTACATATATACAGACGTATCACACACTCCGAATAGAATACAGATTTCCTTCAATGACAGCAACAACTCAATGACCCGCCCACTAGCATGGCTAAAATACTAAACCACTAGATAGCTTTATGTGAACTTGAGCTTGATTGTTTCTTAGCTCTGCTTCAGAACCTCATGATCATGTGCATGCAATTTCTACAGAAGCGGAAACGTAGATGCTGTGGGTCAGTGAGCATTCCTTTCCAGGGTGCTTCTGAGATGAAGCCCCACGATTAACACAGGGCCCTTAATGATGGGCGGGGGACTAAGCATTCCAAGATTGGCCTGGATTCCTGCCAGAAGGGAGAGAAAGGGGTCTTTGTATGTGGACATCTGAAGGGCGGGCATAAACATGTTAGTTGATACTTAACACCCAAAACCAGTGCCAAAACCGTTAGCTCCCCTCAATAGCCTACTCTGGTTTCAACTGTCCGCGACAATGGAGCAGCCACCTCAATATACAAAACTTGCTCTTTAAACATCCTCAGAGGAATTCCCAAAATAGCAGCTGTTAGAAGCAAACAGACTCTAATTCATTGACATATGCAGACCTTTTAATGTTTTTCTGGTGACGTTTACATTTTTTTTTGTACCTACGCCATCTATGCATTTTTAATAATTACCTTGTAGATTACGTATGCAATCCCTCCAGGCACTTGAAGAAGGAGCCCCGGGATTCATCATCAGATGAAATTGTTAGTTTTTACGGCAAGAGGCCCAGCTAATTTATGCGGGGAATTTTTCAGACGTTTTTCCTCTGGGCTCCCTTCCCTGCTGTCCTCGCGCCTTTCTTCCTCAGTACATTAAGAGATTCTGATGTGCCTGCAGCA
Take B3: the “Fold change (Median)” value was 14.54 fold.

B4: ID0403-1: enhancer fragment, SEQ ID NO: 32 (nucleic acid)
DNA: TGCCTCTCTTCCATTGGCATTGGAGTGGCTATAGGCCTTTGGAGGACCTGGCAAAGGGGAAGTTGATTTAGGGGTTCATTGAATTGAGGGGAAGTATGTAAGTGGTTTGCAGTCACTTCCTTGTGTGGTACTCTTGTATAGTAATGATTTCCTGGAATA
Take B4: the “Fold change (Median)” value is recorded as 24.9 fold.

B5: ID0109: enhancer fragment, SEQ ID NO: 6 (nucleic acid)
DNA: GAAATTGGATCCTGAGGAGAATGTCACCACCTCTTTGACAATAACTAGCTTTCAGAGCTGAACACAGTGAATCTGGATACTGTGTATATGTTTAAATGAGTTAGGAAATGACATCACATTATTTATTTCTTCTTTTGTGACTTAGTAAATTGACTTGGCC
For B5, the “Fold change (Median)” value is on record as 116.4 fold.

B6: ID0403-2: enhancer fragment, SEQ ID NO: 33 (nucleic acid)
DNA: ATGTTAAACAGTGAAATCATCAGCAAAAAGCACAAAACTGCAGAAAACATGGCACTAAATAGAACACAAAAAGGACACTTGTTTACAGTATGAGAGCAGAAACAAGGAAACAGTGTTTCCTTGTTCAGCCACAGCTGGGACCTTGTGTGT
Take B6: the “Fold change (Median)” value was determined as 24.9 fold.

B7: ID3499: enhancer fragment, SEQ ID NO: 36 (nucleic acid)
DNA: AAGAATGAACTGGGCCCAGCTGGGCATTTGCATCAAAGTGCCTCACCAGAGTTCCCAGCTGCTCTGGCAGAGTGCCCAGGCTTGCCCCAGAGCCCAAACAGAATGCTCTTTGAGATGCCTCTGGTTTTCA
modifications: listed as DNA, chemistry not given here
Take B7: the “Fold change (Median)” value is reported as 20.7 fold.

B8: CSE208: clustered SOX dimer motif enhancer, SEQ ID NO: 38 (nucleic acid)
DNA: AGATAAAGCCAGAAATAAAAGGGAAAGAAACAGTTATATGATTTTGGTGGGAATTTGCAGAAATACAGGCTGAAGCTGAAGTCTTCCATCAGGTGAGGTTTTTTCCATTGATCTCATCTCTCGGGCTCAGCTCTTTTATCTCCAGCGCATTTTGGATGTGGCTTCTCTTTCCACCTGCTGGGCCTTTAGATAGAGTACTTCCTTTTGTTTCAAGGTAGCATTTAACTGAGTCTGGAAAAACCATCATTAAGGGAAAATAAAGCTGAAAGATGAATTGAAAACTATGTAAAAGGGCCCTTTCAGGCTGCCGGAGAGATTGCCTTTCCAGCCTAATGAGCCTGTGCTGCCTCTGATTCAGATGGTGCAAGGACAGGAGAAAAGAATGGAGTTTTGTGCACTGCGATTTTCCAAAGCACATAATGCTTAGTCATTTGGGGTGTTAGGAAAGAGAGAAAGTCGGAGCGGAGTGTGTGGTGAAGTGAGAGAAAGAAAGAAGGCTGAATTTTCGTTAAGCTGCTCAAATGCCTGCTTTAACAAAAGTCTGCCAGGGCTAGAGGTGATTAGCCATCAGTGCTGCTGCTGTTTTTGCTGTCG
On to B8, for which the “Fold change (Median)” value is on record as 45.5 fold.

B9: ID4035: enhancer fragment, SEQ ID NO: 29 (nucleic acid)
DNA: CCCAGACTGCCATCTCCACGGCCCCCACACCAGCACACAGATGCCTCATTCACGTGGTGCTCCCAGGGCCTGGCACCAGTTCTGAGGCTTAAAATAGGCACACAACGGGCCTTTGTCGGATAGAGGAAGGAAGGAAGGAGCGTTTCAGACAAAGGAGACA
For B9, the “Fold change (Median)” value was determined as 26.2 fold.

B10: CSE222: clustered SOX dimer motif enhancer, SEQ ID NO: 39 (nucleic acid)
DNA: CTCTTTGGGTCTAGGTATCATTTTGGGATCACATCATGATAACTCTATGTGTGTGTGCTGGGAGGGCAAAGTTGCAAAGCAATTACTCAGCAATGCTGAAGAAAGAAGCAATTACTGGAACACATTTTAGCCCCGCTTGTCAGAGTGACTTTCACTGGGGCACAAGGGAAGCATTCACTTAGGCAGTATCCCTTTCAGAGGCTTAATTTAGTTTTTTCTTCCCTTTAATTGTGTGATTCCAGTATTTTAGCTACAATCCCTAGGCTGTAGGAACCTTTAAACACTTCTTTTTATAAAAGAAATGCATGGGCTTTTGAAGAATAAACAGGGGGCTGCATAATTTATAGGAAAATGGCACCATGGACTTTTCCTTCACAAAGAACATTGGGGTTACATTGGAACAAGCCAAATATGTTTTTAATGAATAGTCAGTAATCAGCAGCAGCTACAGTAAGTGCTTGAAATTTTTCTTTTATGTGCTATGAGTCCACAAACTAAGCATCTGATTCTGATTGCAGCCATGA
For B10, the “Fold change (Median)” value came out at 145.9 fold.

B11: ID4431: enhancer fragment, SEQ ID NO: 35 (nucleic acid)
DNA: AAATGGTGATTATCATCATTTGTTCAGGGACATTAGCATGAAGGCCGAATGTTCTGGCACAAAGACACGTCTGTGGGACAGGCAC
modifications: listed as DNA, chemistry not given here
For the molecule B11, the “Fold change (Median)” value is 21.2 fold.

B12: ID2816: enhancer fragment, SEQ ID NO: 31 (nucleic acid)
DNA: TTCCTGCATCTGGCCCTCTTTGAGAGCCCCTTGTGTGCCAATGACAAACCCTTCTTTATTTAAGCTCCTCTGAAGTGCCTTCCTGGTCTTGGCAGCTGGACAGGGCCCTGAATAAGACAGCGAGCCTCAATGGCAGGCTACCCCAGGGCTGGGTGACGTA
As for B12, the “Fold change (Median)” value came to 25.1 fold.

For the origin of these results see patent US20260241035A1, “FUNCTIONAL NUCLEIC ACID MOLECULE AND METHOD” (THE UNIVERSITY COURT OF THE UNIVERSITY OF EDINBURGH, priority 2022, published 2026).
